Values joined by “and” are separate entries in the source; they are usually repeats but may differ in a detail not shown here. Identical values can stand only once.
Tests used:
[1] = molecular target: the molecule itself; experiment: AUC; sedimentation velocity, absorbance (280 nm) and interference optics; in the absence of nucleotide
[2] = molecular target: the molecule itself; experiment: SEC-MALS; Viscotek TDA 305 system, Shodex KW-803 silica column; in the absence of nucleotide

B1: DNA polymerase theta helicase domain (Polθ-HLD), residues 67–894 (domain or fragment, human, UniProt O75417 67-894, looked up)
chain: DKLLLANWGLPKAVLEKYHSFGVKKMFEWQAECLLLGQVLEGKNLVYSAPTSAGKTLVAELLILKRVLEMRKKALFILPFVSVAKEKKYYLQSLFQEVGIKVDGYMGSTSPSRHFSSLDIAVCTIERANGLINRLIEENKMDLLGMVVVDELHMLGDSHRGYLLELLLTKICYITRKSASCQADLASSLSNAVQIVGMSATLPNLELVASWLNAELYHTDFRPVPLLESVKVGNSIYDSSMKLVREFEPMLQVKGDEDHVVSLCYETICDNHSVLLFCPSKKWCEKLADIIAREFYNLHHQAEGLVKPSECPPVILEQKELLEVMDQLRRLPSGLDSVLQKTVPWGVAFHHAGLTFEERDIIEGAFRQGLIRVLAATSTLSSGVNLPARRVIIRTPIFGGRPLDILTYKQMVGRAGRKGVDTVGESILICKNSEKSKGIALLQGSLKPVRSCLQRREGEEVTGSMIRAILEIIVGGVASTSQDMHTYAACTFLAASMKEGKQGIQRNQESVQLGAIEACVMWLLENEFIQSTEASDGTEGKVYHPTHLGSATLSSSLSPADTLDIFADLQRAMKGFVLENDLHILYLVTPMFEDWTTIDWYRFFCLWEKLPTSMKRVAELVGVEEGFLARCVKGKVVARTERQHRQMAIHKRFFTSLVLLDLISEVPLREINQKYGCNRGQIQSLQQSAAVYAGMITVFSNRLGWHNMELLLSQFQKRLTFGIQRELCDLVRVSLLNAQRARVLYASGFHTVADLARANIVEVEVILKNAVPFKSARKAVDEEEEAVEERRNMRTIWVTGRKGLTEREAAALIVEEARMILQQDLVEM
notes: DNA polymerase theta (Polθ, POLQ gene), human, helicase domain, residues 67–894; printed monomer mass 93,080 Da; Tetramer in crystals (by crystallographic symmetry) and in solution; Further construct details may stand in the Supplemental Experimental Procedures; also called Polθ helicase domain; 67–894 construct
Question: What does the source list for B1?
Answer: stoichiometry N [1]: 4 and 3.2; stoichiometry N [2]: ~4
